# Measured values as given in US20230287383A1, “PYRROLYSYL-tRNA SYNTHETASE VARIANTS AND USES THEREOF” (enGenes Biotech GmbH, priority 2020, published 2023).
# B1: MmPyIRS/MmtRNACUA^Pyl: wildtype Methanosarcina mazei pyrrolysyl-tRNA synthetase/tRNA o-pair, the benchmark (protein, UniProt Q8PWY1 1-454, looked up)
# Pyrrolysine--tRNA ligase: MDKKPLNTLISATGLWMSRTGTIHKIKHHEVSRSKIYIEMACGDHLVVNNSRSSRTARALRHHKYRKTCKRCRVSDEDLNKFLTKANEDQTSVKVKVVSAPTRTKKAMPKSVARAPKPLENTEAAQAQPSGSKFSPAIPVSTQESVSVPASVSTSISSISTGATASALVKGNTNPITSMSAPVQASAPALTKSQTDRLEVLLNPKDEISLNSGKPFRELESELLSRRKKDLQQIYAEERENYLGKLEREITRFFVDRGFLEIKSPILIPLEYIERMGIDNDTELSKQIFRVDKNFCLRPMLAPNLYNYLRKLDRALPDPIKIFEIGPCYRKESDGKEHLEEFTMLNFCQMGSGCTRENLESIITDFLNHLGIDFKIVGDSCMVYGDTLDVMHGDLELSSAVVGPIPLDREWGIDKPWIGAGFGLERLLKVKHDFKNIKRAARSESYYNGISTNL
# modifications: with cognate tRNA Pyl
# notes: wildtype Methanosarcina mazei pyrrolysyl-tRNA synthetase/tRNA o-pair, the benchmark
# Legend:
# [1] = system: eGFP Y40am; assay: eGFP Y40am amber suppression reporter: ncAA incorporation by o-pairs, fluorescence normalized to cell density; format: cell-based
# Method: The incorporation of BocK, AllocK and AzK by the MmPyIRS/MmtRNACUA^Pyl and MaPyIRS/MatRNACUA^Pyl o-pairs was compared. The ncAAs were supplemented in the medium at 5 mM. eGFP fluorescence (λex 488 nm; λem 508 nm) was assessed after 4 hours (white bars) and overnight (black bars) induction. Fluorescence units were correlated to cell density (F488;508/D600) and the average of eight technical replicates is shown; the error bars indicate the standard deviation.
# The incorporation of AzK by the MmPyIRS/MmtRNACUA^Pyl and the MaPyIRS/MatRNACUA^Pyl wild type and mutant o-pairs was compared. The ncAA was supplemented in the medium at 5 mM. eGFP fluorescence (λex 485 nm; λem 530 nm) was assessed after overnight induction. eGFP wild type was expressed from the same plasmid carrying the MmOP. Fluorescence units were correlated to cell density (F485;530/D600) and the average of at least two technical replicates is shown; the error bars indicate the standard deviation.
# FIG. 4: The MaPyIRS M129L V168C/MatRNACUA^Pyl mutant o-pair produces more target protein than MmOP with less or the same amount of AzK. MaOP LC, MaPyIRS M129L V168C/MatRNACUA^Pyl; MmOP, PyIRS and RNACUA^Pyl from M. mazel, both o-pairs were used in BL21(DE3) cells; UNINDUCED, eGFP Y40am expression was not induced; INDUCED, expression was induced with 1 mM IPTG. Different concentrations of AzK were provided in the medium either 2 hours before induction with IPTG, or in parallel with IPTG. eGFP fluorescence (λex 485 nm; λem 530 nm) was assessed after overnight induction and was normalized to cell density (D600). The average of at least 3 replicates is shown and the error bars indicate the standard deviation.
# The MaPyIRS M129L+V168C mutant variant was generated, which contains the same amino acid residues in the amino acid binding pocket as the MmPyIRS. […] The efficiency of the incorporation of AzK into the reporter protein eGFP Y40am was assessed by recording the fluorescence intensity normalized to the corresponding cell density and was compared to the fluorescence of wild type eGFP expressed from the same plasmid.
# [2] = system: eGFP Y40am; assay: SDS-PAGE analysis of eGFP Y40am expression in the presence of AzK; format: cell-based; details: overnight induction, compared to eGFP wild type band
# Method: FIG. 3: SDS-PAGE analysis of the expression of eGFP Y40am in the presence of AzK with the MaPyIRS M129L V168C/MatRNACUA^Pyl mutant o-pair in comparison to MmOP and MaOP corroborates the fluorescence analysis. eGFP expression was assessed after overnight induction, two expressions of eGFP Y40AzK with the mutant MaOP are shown. eGFP wild type was expressed from the same plasmid carrying the MmOP. Samples of corresponding cell density were analyzed. The calculated molecular weight of eGFP is 28 kDa. M, molecular weight marker.
# To further validate the finding, the expression of the reporter protein eGFP by SDS-PAGE was analyzed (e.g., FIG. 3).
molecule,measurement,setting,value
B1,AllocK incorporation,"[1]; AllocK 5 mM in medium, eGFP fluorescence correlated to cell density",efficient incorporation
same,AzK incorporation efficiency,"[1]; AzK 5 mM in medium, eGFP fluorescence correlated to cell density (D600)",very well incorporated
same,BocK incorporation,"[1]; BocK 5 mM in medium, eGFP fluorescence correlated to cell density",efficient incorporation
same,eGFP expression band intensity in the presence of AzK,[2],markedly less intense
